Test [1] deals with T1, human CD47 (human, UniProt Q08722 19-323).
T1 construct: whole, on cells; also called CD47 on red blood cells; endogenous CD47 on NUGC-4 cells
Description: flow cytometry on human red blood cells, antibody at 150 µg/mL. As for the experimental part:
(§1) Flow cytometry was used to determine whether the bispecific antibody was bound to red blood cells. Another anti-CD47 antibody F4AM4-IgG1 (abbreviated as F4AM4 in the accompanying drawings; the amino acid sequence of the heavy chain is SEQ ID NO: 24, and the amino acid sequence of the light chain is SEQ ID NO: 25) developed by the applicant was used as a positive control antibody.
(§2) The specific method was as follows: red blood cells were isolated from 1 mL of anticoagulant human blood, and the supernatant was aspirated following centrifugation. After the cells were rinsed twice with PBS, 1 mL of PBS was added to resuspend the red blood cells. The red blood cells were diluted to 1×10⁷/mL with PBS, pipetted at 50 μL/well and added to a 96-well round bottom cell culture plate. Then an equal volume of the serially diluted antibody to be tested was added, fully mixed, and incubated at 4° C. for 1 h. After the culture was rinsed with FACS buffer for three times, 0.5 μg of PE-labeled goat anti-human IgG Fc antibody (Abcam, ab98596) was added, followed by incubation at 4° C. for 1 h. Subsequently, the cells were rinsed with FACS buffer for three times and then resuspended by adding 200 μL of FACS buffer, and finally the amount of the antibody binding to the red blood cells (expressed as mean fluorescence intensity (MFI)) was measured by a flow cytometer (Beckman, CytoFLEX AOO-1-1102).
(In general: A flow cytometer gives signals particle by particle.)

The target of test [2] is T1, human CD47. The test is described as follows: flow cytometry on human red blood cells, antibody at 15 µg/mL. As to the method:
as §1, §2

For test [3], the target named is T1, human CD47. Description: flow cytometry, blocking of SIRPα-mFc binding to CD47 on hCLDN18.2-NUGC-4 cells. As for the experimental part: (§3) The specific method was as follows: 1×10⁵ NUGC-4 cells or hCLDN18.2-NUGC-4 cells were taken and centrifuged at a low speed (300 g), and the supernatant was removed. The cells at the bottom of the centrifuge tube were rinsed once with a formulated FACS buffer (1×PBS buffer containing 2% FBS). Subsequently, the serially diluted antibody to be tested was added to the rinsed cells, which were then incubated for 1 h. After the cells were rinsed twice with FACS buffer, 100 μL of 1 μg/mL SIRPα-mFc (ACRO, SIA-H52A8) was added, followed by incubation at 4° C. for 1 h. After the cells were rinsed with FACS buffer for three times, 100 μL of 1:200 diluted PE-labeled goat anti-mouse Fc (Abcam, ab98742) was added as the secondary antibody, followed by incubation at 4° C. for 1 h. After centrifugation, the supernatant was removed, the cells were resuspended by adding 200 μL of FACS buffer, and finally the amount of SIRPα-mFc binding to the cells (expressed as mean fluorescence intensity (MFI)) was measured by a flow cytometer (Beckman, CytoFLEX AOO-1-1102).
Besides, due to the fact that the anti-CLDN18.2 single domain antibody NA3S-H1 was only bound to CLDN18.2, the antibody had no blocking effect.

The target of test [4] is T1, human CD47. Description: flow cytometry, blocking of SIRPα-mFc binding to CD47 on NUGC-4 cells. As to the method: as §3

“And” between values parts separate entries of the source, which are not always exact repeats. Equal values may be shown once.

Usually IC50 stands for the concentration that gives 50% inhibition. A low value points to greater potency in that assay.

T1 sequence (Q08722 19-323): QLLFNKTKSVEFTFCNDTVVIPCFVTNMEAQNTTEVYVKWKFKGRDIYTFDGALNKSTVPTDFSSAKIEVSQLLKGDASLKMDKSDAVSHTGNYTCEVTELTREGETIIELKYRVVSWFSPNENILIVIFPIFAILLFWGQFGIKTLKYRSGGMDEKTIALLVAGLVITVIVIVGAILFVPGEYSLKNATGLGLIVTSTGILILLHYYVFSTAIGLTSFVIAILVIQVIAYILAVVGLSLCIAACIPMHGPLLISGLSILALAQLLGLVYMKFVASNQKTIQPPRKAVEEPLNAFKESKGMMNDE

B1: anti-CD47 humanized antibody A7H3L3 (antibody, human IgG1, kappa, V domains shown)
VH: QVQLVQSGAEVKKPGASVKVSCKASGFNIKDIYIYWVRQAPGQGLEWIGKIDPANGNTKYDQKFQGRATITADTSTNTAYLELSSLRSEDTAVYYCARGYGSGFAYWGQGTLVTVSS
VL: DIQMTQSPSSLSASVGDRVTITCRASQDISNHLNWYQQKPGKAPKLLIYYTSRIHSGVPSSFRGSGSGTDYTLTISSLQPEDIATYFCQQGYTLPFTFGSGTKLEIKR
notes: also called A7H3L3 monoclonal antibody; anti-CD47 monoclonal antibody A7H3L3
Take B1: the MFI in the test with human CD47 [1] is 608 MFI; with human CD47 [2], 463 MFI.

B2: anti-CD47 antibody F4AM4-IgG1 (antibody, V domains shown)
VH: QVQLVQSGAEVKKPGASVKMSCKASGYTFTSSVMHWVRQAPGQGLEWIGYINPYTDGTKYAQKFQGRATLTSDKSTSTAYMEFSSLRSEDTAVYYCGRPYYGTRYGSWFAYWGQGTLVTVSS
VL: DIQMTQSPSSLSASVGDRVTITCRASQDISNYLNWYQQKPGKAPKLLIYYTSRLHSGVPSRFSGSGSGTDYTLTISNLQPEDIATYYCQQGKNYPFTFGSGTKLEIKR
notes: Positive control anti-CD47 antibody developed by the applicant
For B2, the IC50 with human CD47 [3] is 0.056 µg/mL and 0.383 nM; with human CD47 [4], 0.033 µg/mL and 0.226 nM.

B3: antibody 1F8 (the 1F8 antibody in WO 2018075857 A1) (antibody, V domains shown)
VH: KVQLVESGGGLVKPGGSLRLSCAASGFTFSNAWMNWVRQAPGKGLEWVGRIKRKTDGETTDYAAPVKGRFSISRDDSKNTLYLQMNSLKTEDTAVYYCAGSNRAFDIWGQGTMVTVSA
VL: DIVMTQSPDSLAVSLGERATINCKSSQSVLYSSNNRNYLAWYQQKPGQPPKLLINQASTRASGVPDRFSGSGSGTEFTLIISSLHAEDVAIYYCQQYYTPPLAFGGGTKLEIK
Take B3: the IC50 with human CD47 [3] was 12 µg/mL and 82.3 nM; in the test with human CD47 [4] it was 15.4 µg/mL and 106 nM.

B4: anti-CD47/anti-CLDN18.2 bispecific antibody B9 (bispecific antibody, human IgG1, kappa)
heavy: not shown
light: QVQLVESGGGLVQPGGSLRLSCAASGSIFNIPVMGWYRQAPGKQRELVAGISTGGTTNYGDSVKGRFTISRDNAKNTVYLQMNSLKPEDTAVYYCNVLVVSGIGSTLEVWGQGTLVTVSSGGGGSGGGGSDIQMTQSPSSLSASVGDRVTITCRASQDISNHLNWYQQKPGKAPKLLIYYTSRIHSGVPSSFRGSGSGTDYTLTISSLQPEDIATYFCQQGYTLPFTFGSGTKLEIKRTVAAPSVFIFPPSDEQLKSGTASVVCLLNNFYPREAKVQWKVDNALQSGNSQESVTEQDSKDSTYSLSSTLTLSKADYEKHKVYACEVTHQGLSSPVTKSFNRGEC
notes: IgG-like format; NA3S-H1 VHH at the N-terminus of the light chain through Linker1
For B4, the results for the MFI with human CD47 [1] and with human CD47 [2] were 1220 MFI and 239 MFI, respectively.

B5: anti-CD47/anti-CLDN18.2 bispecific antibody B11 (bispecific antibody, human IgG1, kappa)
heavy: not shown
light: QVQLVESGGGLVQPGGSLRLSCAASGSIFNIPVMGWYRQAPGKQRELVAGISTGGTTNYGDSVKGRFTISRDNAKNTVYLQMNSLKPEDTAVYYCNVLVVSGIGSTLEVWGQGTLVTVSSGGGGSGGGGSDIQMTQSPSSLSASVGDRVTITCRASQDISNHLNWYQQKPGKAPKLLIYYTSRIHSGVPSSFRGSGSGTDYTLTISSLQPEDIATYFCQQGYTLPFTFGSGTKLEIKRTVAAPSVFIFPPSDEQLKSGTASVVCLLNNFYPREAKVQWKVDNALQSGNSQESVTEQDSKDSTYSLSSTLTLSKADYEKHKVYACEVTHQGLSSPVTKSFNRGEC
notes: IgG-like format; NA3S-H1 VHH at the N-terminus of both heavy and light chains
Consider B5, for which the MFI was 847 MFI with human CD47 [1] and 238 MFI with human CD47 [2].

B6: anti-CD47/anti-CLDN18.2 bispecific antibody B8 (bispecific antibody, human IgG1, kappa)
heavy: not shown
light: DIQMTQSPSSLSASVGDRVTITCRASQDISNHLNWYQQKPGKAPKLLIYYTSRIHSGVPSSFRGSGSGTDYTLTISSLQPEDIATYFCQQGYTLPFTFGSGTKLEIKRTVAAPSVFIFPPSDEQLKSGTASVVCLLNNFYPREAKVQWKVDNALQSGNSQESVTEQDSKDSTYSLSSTLTLSKADYEKHKVYACEVTHQGLSSPVTKSFNRGEC
notes: IgG-like format, human IgG1 / kappa constant regions
For the molecule B6, the MFI with human CD47 [1] turned out to be 2140 MFI; with human CD47 [2], 988 MFI.

B7: anti-CD47/anti-CLDN18.2 bispecific antibody B12 (bispecific antibody, human IgG1, kappa)
heavy: not shown
light: DIQMTQSPSSLSASVGDRVTITCRASQDISNHLNWYQQKPGKAPKLLIYYTSRIHSGVPSSFRGSGSGTDYTLTISSLQPEDIATYFCQQGYTLPFTFGSGTKLEIKRTVAAPSVFIFPPSDEQLKSGTASVVCLLNNFYPREAKVQWKVDNALQSGNSQESVTEQDSKDSTYSLSSTLTLSKADYEKHKVYACEVTHQGLSSPVTKSFNRGEC
notes: IgG-like format; NA3S-H1 VHH at the N-terminus of the heavy chain through Linker2 (GGGGS)
As for B7, the MFI in the test with human CD47 [1] worked out at 2530 MFI; with human CD47 [2] it was 1620 MFI.

B8: anti-CD47/anti-CLDN18.2 bispecific antibody B10 (bispecific antibody, human IgG1, kappa)
heavy: not shown
light: DIQMTQSPSSLSASVGDRVTITCRASQDISNHLNWYQQKPGKAPKLLIYYTSRIHSGVPSSFRGSGSGTDYTLTISSLQPEDIATYFCQQGYTLPFTFGSGTKLEIKRTVAAPSVFIFPPSDEQLKSGTASVVCLLNNFYPREAKVQWKVDNALQSGNSQESVTEQDSKDSTYSLSSTLTLSKADYEKHKVYACEVTHQGLSSPVTKSFNRGEC
notes: IgG-like format; NA3S-H1 VHH at the C-terminus of the heavy chain through Linker1
For the molecule B8, the figures for the MFI in the test with human CD47 [1] and with human CD47 [2] were 2490 MFI and 534 MFI, respectively. In addition, the IC50 with human CD47 [3] was 0.765 µg/mL and 4.48 nM.

For the origin of these results see patent publication US20250257128A1 (DRAGONBOAT BIOPHARMACEUTICAL SHANGHAI, published 2025).
